Experimental findings from IntAct's records for PubMed 20581825 are described below.

B1: Periplasmic serine endoprotease DegP (Escherichia coli (strain K12)), P0C0V0 (parent)
chain: MKKTTLALSALALSLGLALSPLSATAAETSSATTAQQMPSLAPMLEKVMPSVVSINVEGSTTVNTPRMPRNFQQFFGDDSPFCQEGSPFQSSPFCQGGQGGNGGGQQQKFMALGSGVIIDADKGYVVTNNHVVDNATVIKVQLSDGRKFDAKMVGKDPRSDIALIQIQNPKNLTAIKMADSDALRVGDYTVAIGNPFGLGETVTSGIVSALGRSGLNAENYENFIQTDAAINRGNSGGALVNLNGELIGINTAILAPDGGNIGIGFAIPSNMVKNLTSQMVEYGQVKRGELGIMGTELNSELAKAMKVDAQRGAFVSQVLPNSSAAKAGIKAGDVITSLNGKPISSFAALRAQVGTMPVGSKLTLGLLRDGKQVNVNLELQQSSQNQVDSSSIFNGIEGAEMSNKGKDQGVVVNNVKTGTPAAQIGLKKGDVIIGANQQAVKNIAELRKVLDSKPSVLALNIQRGDSTIYLLMQ
partner: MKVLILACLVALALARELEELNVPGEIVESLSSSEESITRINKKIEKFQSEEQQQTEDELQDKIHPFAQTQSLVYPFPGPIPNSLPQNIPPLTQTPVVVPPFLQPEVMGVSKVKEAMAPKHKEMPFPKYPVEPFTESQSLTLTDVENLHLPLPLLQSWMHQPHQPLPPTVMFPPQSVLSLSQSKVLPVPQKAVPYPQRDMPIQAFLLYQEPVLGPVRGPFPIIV

One assay covers variants of B1. To be noted: with casb_bovin CSN2, P02666.
For the variant R351A;Q353A, the “effect of a mutation on the interaction” value was “disrupting interaction”. Still for that read-out and setting: then L291W, with “disrupting interaction”.

In another assay the parent is B1. To be noted: with casb_bovin CSN2, P02666. The source holds these as a separate data set.
In the case of R351A;Q353A, the “effect of a mutation on the interaction” value was “decreasing interaction”. Same read-out and setting: the same measure for R213A: “disrupting interaction”.
